Experimental data taken from patent US20220313840A1 (ACADEMIA SINICA, published 2022).

How the values were obtained:
[1] = molecular target: T1, endogenous EGFR on human carcinoma cell lines (human, UniProt P00533 25-1210); assay: cell ELISA on human carcinoma cell lines with endogenous EGFR
T1 construct: whole, on cells; EGFR expression of the cell lines was checked by Western blotting; also called endogenous cellular EGFR; EGFR on FaDu and Ca9-22 cells

[2] = molecular target: T1, endogenous EGFR on human carcinoma cell …; assay: confocal microscopy of FaDu and Ca9-22 cells, anti-FLAG detection
Protocol: We produced soluble scFv from EGFR-PC10 and designated it as EGFR-s10. Target binding and internalization are essential requirements of LTL-targeting moieties. We investigated these features of EGFR-s10 in SCCHN cancer cell lines. FaDu cells and Ca9-22 cells were separately incubated with EGFR-sl0 at 4° C. or 37° C. for 30 min and compared with isotypic IgG controls. EGFR-sl0 bound to the cell membrane of FaDu and Ca9-22 cells at 4° C. […] (FIGS. 3A-B).

[3] = molecular target: T1, endogenous EGFR on human carcinoma cell …; assay: cell uptake, including EGFR-knockdown cells
Protocol: To evaluate whether internalization and targeting were preserved after EGFR-s10 ligation to liposomes, we tested EGFR-s10-conjugated liposomal SRB in the SCCHN cell lines FaDu and Ca9-22 cells at 37° C. for 30 min (FIGS. 3C-D). No compromise of internalization capacity was discernable in either cell line compared to the previous soluble EGFR-s10.

B1: EGFR-PC10 phage clone (phage-displayed human anti-EGFR scFv) (scFv)
scFv: EVQLVESGGGLVQPGGSLRLSCAASGFNLSSFWMSWVRQAPGKGLEWVANINHDGSDKYYVDSVKGRFSISRDNTKNSVYLQMDSLRGEDTAVYYCAKGKSLYDGSALDMWGQGTMVTVSSGGGGSGGGGSGGGGSDIVMTQSPSTLSASVGDRVTITCRASQTIGRWLAWYQQKPGKAPKLLIYGASSLQSGVPSRFSGSGSGTDFTLTISSLQPEDFATYYCQQSYSTLWTFGQGTKLEIKR
notes: Tested as whole phage particles displaying the scFv, detected with anti-M13 antibody; also called EFGR-PC10 phage; not shown: phage coat protein fusion of the M13 display system; not described
binding result [1]: binds

B2: EGFR-s10 scFv (soluble scFv generated from phage clone EGFR-PC10) (scFv)
scFv: EVQLVESGGGLVQPGGSLRLSCAASGFNLSSFWMSWVRQAPGKGLEWVANINHDGSDKYYVDSVKGRFSISRDNTKNSVYLQMDSLRGEDTAVYYCAKGKSLYDGSALDMWGQGTMVTVSSGGGGSGGGGSGGGGSDIVMTQSPSTLSASVGDRVTITCRASQTIGRWLAWYQQKPGKAPKLLIYGASSLQSGVPSRFSGSGSGTDFTLTISSLQPEDFATYYCQQSYSTLWTFGQGTKLEIKR
notes: Expressed in E. coli HB2151 from the pFHC vector; also called EGFR-sl0; soluble anti-EGFR human scFv; not shown: flag, 6xHis and cysteine tag from the pFHC vector
binding result [2]: binds

B3: EGFR-s10-conjugated ligand-targeting liposomes (LTLs) (other)
scFv: EVQLVESGGGLVQPGGSLRLSCAASGFNLSSFWMSWVRQAPGKGLEWVANINHDGSDKYYVDSVKGRFSISRDNTKNSVYLQMDSLRGEDTAVYYCAKGKSLYDGSALDMWGQGTMVTVSSGGGGSGGGGSGGGGSDIVMTQSPSTLSASVGDRVTITCRASQTIGRWLAWYQQKPGKAPKLLIYGASSLQSGVPSRFSGSGSGTDFTLTISSLQPEDFATYYCQQSYSTLWTFGQGTKLEIKR
modifications: reduced cysteine of the tag conjugated to Maleimide-PEG-DSPE inserted in a PEGylated liposome loaded with doxorubicin or vinorelbine
notes: also called EGFR-s10-LD; EGFR-s10-LV; not shown: flag, 6xHis and cysteine tag from the pFHC vector
binding result [3]: binds
